T1: human pro-EMAPII (human, UniProt Q12904 1-312)
T1 chain: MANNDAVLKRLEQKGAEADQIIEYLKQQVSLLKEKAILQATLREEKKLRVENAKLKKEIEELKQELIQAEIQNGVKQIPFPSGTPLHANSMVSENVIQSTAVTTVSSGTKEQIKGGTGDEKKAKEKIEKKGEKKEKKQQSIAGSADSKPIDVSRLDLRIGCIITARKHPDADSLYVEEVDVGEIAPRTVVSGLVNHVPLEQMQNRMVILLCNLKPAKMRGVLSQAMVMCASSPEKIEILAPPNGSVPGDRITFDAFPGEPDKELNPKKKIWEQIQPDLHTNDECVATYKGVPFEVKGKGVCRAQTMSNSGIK

B1: Humanized HC2 + LC4 (antibody)
heavy: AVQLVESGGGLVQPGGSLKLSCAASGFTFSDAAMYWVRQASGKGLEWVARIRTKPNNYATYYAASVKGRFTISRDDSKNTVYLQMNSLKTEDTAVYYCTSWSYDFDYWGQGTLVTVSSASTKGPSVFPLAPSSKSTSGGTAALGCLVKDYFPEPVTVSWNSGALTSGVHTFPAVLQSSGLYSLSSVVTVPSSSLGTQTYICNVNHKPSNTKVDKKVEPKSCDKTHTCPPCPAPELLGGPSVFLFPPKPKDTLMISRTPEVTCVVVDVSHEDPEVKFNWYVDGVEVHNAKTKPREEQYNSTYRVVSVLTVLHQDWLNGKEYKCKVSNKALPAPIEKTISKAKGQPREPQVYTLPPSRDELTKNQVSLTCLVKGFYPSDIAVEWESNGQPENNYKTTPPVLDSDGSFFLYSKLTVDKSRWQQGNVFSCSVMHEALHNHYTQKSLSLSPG
light: DIQMTQSPLSLPVTPGEPASISCRSSKSLLHSSGKTYLNWYLQKPGQSPQLLIYWMSTRASGVPDRFSGSGSGTDFTLKISRVEAEDVGVYYCQQFLEYPLTFGGGTKVEIKRTVAAPSVFIFPPSDEQLKSGTASVVCLLNNFYPREAKVQWKVDNALQSGNSQESVTEQDSKDSTYSLSSTLTLSKADYEKHKVYACEVTHQGLSSPVTKSFNRGEC
B2: Humanized HC1 + LC4 (antibody)
heavy: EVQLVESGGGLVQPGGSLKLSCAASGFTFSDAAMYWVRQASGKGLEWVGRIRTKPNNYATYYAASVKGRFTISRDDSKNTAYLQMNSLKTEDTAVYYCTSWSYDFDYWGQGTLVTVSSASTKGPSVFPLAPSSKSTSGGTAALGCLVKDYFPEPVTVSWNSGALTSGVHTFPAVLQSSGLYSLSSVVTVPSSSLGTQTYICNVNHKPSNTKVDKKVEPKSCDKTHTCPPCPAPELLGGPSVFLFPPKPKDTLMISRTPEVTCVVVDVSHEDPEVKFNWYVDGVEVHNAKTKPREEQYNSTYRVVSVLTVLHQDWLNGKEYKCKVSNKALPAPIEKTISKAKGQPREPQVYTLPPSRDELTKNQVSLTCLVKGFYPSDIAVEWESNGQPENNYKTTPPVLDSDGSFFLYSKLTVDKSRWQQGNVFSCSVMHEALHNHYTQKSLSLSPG
light: DIQMTQSPLSLPVTPGEPASISCRSSKSLLHSSGKTYLNWYLQKPGQSPQLLIYWMSTRASGVPDRFSGSGSGTDFTLKISRVEAEDVGVYYCQQFLEYPLTFGGGTKVEIKRTVAAPSVFIFPPSDEQLKSGTASVVCLLNNFYPREAKVQWKVDNALQSGNSQESVTEQDSKDSTYSLSSTLTLSKADYEKHKVYACEVTHQGLSSPVTKSFNRGEC
B3: Humanized HC3 + LC4 (antibody)
heavy: not shown
light: DIQMTQSPLSLPVTPGEPASISCRSSKSLLHSSGKTYLNWYLQKPGQSPQLLIYWMSTRASGVPDRFSGSGSGTDFTLKISRVEAEDVGVYYCQQFLEYPLTFGGGTKVEIKRTVAAPSVFIFPPSDEQLKSGTASVVCLLNNFYPREAKVQWKVDNALQSGNSQESVTEQDSKDSTYSLSSTLTLSKADYEKHKVYACEVTHQGLSSPVTKSFNRGEC
B4: Humanized HC4 + LC4 (antibody)
heavy: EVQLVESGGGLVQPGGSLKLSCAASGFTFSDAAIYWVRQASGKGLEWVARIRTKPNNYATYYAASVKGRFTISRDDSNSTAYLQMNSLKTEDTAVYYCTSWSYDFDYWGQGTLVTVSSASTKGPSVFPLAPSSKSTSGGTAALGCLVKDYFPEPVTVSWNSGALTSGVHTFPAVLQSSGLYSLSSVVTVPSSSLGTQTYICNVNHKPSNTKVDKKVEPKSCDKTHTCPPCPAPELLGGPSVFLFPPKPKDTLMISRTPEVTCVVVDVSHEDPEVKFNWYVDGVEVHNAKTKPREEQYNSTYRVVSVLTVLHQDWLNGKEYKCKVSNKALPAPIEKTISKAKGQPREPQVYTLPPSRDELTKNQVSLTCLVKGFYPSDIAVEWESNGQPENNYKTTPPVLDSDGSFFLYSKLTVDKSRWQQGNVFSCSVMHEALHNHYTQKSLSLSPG
light: DIQMTQSPLSLPVTPGEPASISCRSSKSLLHSSGKTYLNWYLQKPGQSPQLLIYWMSTRASGVPDRFSGSGSGTDFTLKISRVEAEDVGVYYCQQFLEYPLTFGGGTKVEIKRTVAAPSVFIFPPSDEQLKSGTASVVCLLNNFYPREAKVQWKVDNALQSGNSQESVTEQDSKDSTYSLSSTLTLSKADYEKHKVYACEVTHQGLSSPVTKSFNRGEC
B5: Humanized HC5 + LC4 (antibody)
heavy: not shown
light: DIQMTQSPLSLPVTPGEPASISCRSSKSLLHSSGKTYLNWYLQKPGQSPQLLIYWMSTRASGVPDRFSGSGSGTDFTLKISRVEAEDVGVYYCQQFLEYPLTFGGGTKVEIKRTVAAPSVFIFPPSDEQLKSGTASVVCLLNNFYPREAKVQWKVDNALQSGNSQESVTEQDSKDSTYSLSSTLTLSKADYEKHKVYACEVTHQGLSSPVTKSFNRGEC
B6: Humanized HC3 + LC1 (antibody)
heavy: not shown
light: DIVMTQSPLSLPVTPGEPASISCRSSKSLLHSSGKTYLNWYLQKPGQSPQLLIYWMSNRASGVPDRFSGSGSGTDFTLKISRVEAEDVGVYYCQQFLEYPLTFGQGTKLEIKRTVAAPSVFIFPPSDEQLKSGTASVVCLLNNFYPREAKVQWKVDNALQSGNSQESVTEQDSKDSTYSLSSTLTLSKADYEKHKVYACEVTHQGLSSPVTKSFNRGEC
B7: Humanized HC2 + LC1 (antibody)
heavy: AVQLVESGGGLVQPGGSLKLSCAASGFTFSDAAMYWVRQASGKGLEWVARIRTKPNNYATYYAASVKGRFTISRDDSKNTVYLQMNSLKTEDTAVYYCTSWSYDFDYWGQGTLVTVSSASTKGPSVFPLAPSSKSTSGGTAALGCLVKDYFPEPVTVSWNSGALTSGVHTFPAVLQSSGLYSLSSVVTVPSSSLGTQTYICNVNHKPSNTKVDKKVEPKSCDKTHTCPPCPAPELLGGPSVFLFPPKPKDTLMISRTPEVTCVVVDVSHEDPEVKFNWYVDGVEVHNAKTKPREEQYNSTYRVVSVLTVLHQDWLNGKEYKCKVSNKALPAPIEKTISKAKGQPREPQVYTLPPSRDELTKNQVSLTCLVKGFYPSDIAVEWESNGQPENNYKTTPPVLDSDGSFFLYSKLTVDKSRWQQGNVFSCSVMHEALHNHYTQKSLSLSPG
light: DIVMTQSPLSLPVTPGEPASISCRSSKSLLHSSGKTYLNWYLQKPGQSPQLLIYWMSNRASGVPDRFSGSGSGTDFTLKISRVEAEDVGVYYCQQFLEYPLTFGQGTKLEIKRTVAAPSVFIFPPSDEQLKSGTASVVCLLNNFYPREAKVQWKVDNALQSGNSQESVTEQDSKDSTYSLSSTLTLSKADYEKHKVYACEVTHQGLSSPVTKSFNRGEC
B8: Humanized HC5 + LC1 (antibody, V domains shown)
VH: AVQLVESGGGLVQPGGSLKLSCAASGFTFSDAAMYWVRQASGKGLEWVARIRTKPNNYATYYAASVKGRFTISRDDSNSTAYLQMNSLKTEDTAVYYCTSWSYDFDYWGQGTLVTVSS
VL: DIVMTQSPLSLPVTPGEPASISCRSSKSLLHSSGKTYLNWYLQKPGQSPQLLIYWMSNRASGVPDRFSGSGSGTDFTLKISRVEAEDVGVYYCQQFLEYPLTFGQGTKLEIKR
B9: Humanized HC4 + LC1 (antibody, V domains shown)
VH: EVQLVESGGGLVQPGGSLKLSCAASGFTFSDAAIYWVRQASGKGLEWVARIRTKPNNYATYYAASVKGRFTISRDDSNSTAYLQMNSLKTEDTAVYYCTSWSYDFDYWGQGTLVTVSS
VL: DIVMTQSPLSLPVTPGEPASISCRSSKSLLHSSGKTYLNWYLQKPGQSPQLLIYWMSNRASGVPDRFSGSGSGTDFTLKISRVEAEDVGVYYCQQFLEYPLTFGQGTKLEIKR
B10: Humanized HC1 + LC1 (antibody, V domains shown)
VH: EVQLVESGGGLVQPGGSLKLSCAASGFTFSDAAMYWVRQASGKGLEWVGRIRTKPNNYATYYAASVKGRFTISRDDSKNTAYLQMNSLKTEDTAVYYCTSWSYDFDYWGQGTLVTVSS
VL: DIVMTQSPLSLPVTPGEPASISCRSSKSLLHSSGKTYLNWYLQKPGQSPQLLIYWMSNRASGVPDRFSGSGSGTDFTLKISRVEAEDVGVYYCQQFLEYPLTFGQGTKLEIKR
B11: Humanized HC4 + LC3 (antibody)
heavy: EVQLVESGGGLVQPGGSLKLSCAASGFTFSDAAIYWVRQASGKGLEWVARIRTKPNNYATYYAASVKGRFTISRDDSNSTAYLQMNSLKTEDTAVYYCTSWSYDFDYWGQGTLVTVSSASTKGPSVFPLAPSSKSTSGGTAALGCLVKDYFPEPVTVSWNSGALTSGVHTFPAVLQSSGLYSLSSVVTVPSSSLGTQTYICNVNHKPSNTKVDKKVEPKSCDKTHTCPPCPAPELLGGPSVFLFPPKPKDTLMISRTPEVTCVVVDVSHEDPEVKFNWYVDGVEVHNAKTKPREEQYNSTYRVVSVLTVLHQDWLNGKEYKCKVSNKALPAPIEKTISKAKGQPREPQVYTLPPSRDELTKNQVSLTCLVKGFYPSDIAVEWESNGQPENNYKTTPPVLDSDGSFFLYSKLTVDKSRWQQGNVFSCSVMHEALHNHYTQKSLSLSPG
light: DIVMTQSPLSLPVTPGEPASISCRSSKSLLHSSGKTYLNWYLQKPGQSPQLLIYWMSTRASGVPDRFSGSGSGTDFTLKISRVEAEDVGVYYCQQFLEYPLTFGGGTKVEIKRTVAAPSVFIFPPSDEQLKSGTASVVCLLNNFYPREAKVQWKVDNALQSGNSQESVTEQDSKDSTYSLSSTLTLSKADYEKHKVYACEVTHQGLSSPVTKSFNRGEC
B12: Humanized HC2 + LC3 (antibody)
heavy: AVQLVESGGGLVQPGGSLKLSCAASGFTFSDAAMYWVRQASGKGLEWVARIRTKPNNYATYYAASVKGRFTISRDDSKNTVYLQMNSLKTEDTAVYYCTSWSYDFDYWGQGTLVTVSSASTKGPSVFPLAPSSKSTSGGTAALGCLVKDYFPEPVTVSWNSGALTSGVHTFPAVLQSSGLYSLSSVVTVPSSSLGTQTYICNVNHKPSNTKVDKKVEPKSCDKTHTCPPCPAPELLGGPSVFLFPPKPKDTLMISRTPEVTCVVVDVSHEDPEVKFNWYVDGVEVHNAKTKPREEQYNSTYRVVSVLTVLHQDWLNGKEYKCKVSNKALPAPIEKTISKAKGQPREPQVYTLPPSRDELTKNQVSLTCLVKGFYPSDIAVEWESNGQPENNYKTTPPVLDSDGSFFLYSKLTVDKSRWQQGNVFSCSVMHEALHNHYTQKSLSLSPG
light: DIVMTQSPLSLPVTPGEPASISCRSSKSLLHSSGKTYLNWYLQKPGQSPQLLIYWMSTRASGVPDRFSGSGSGTDFTLKISRVEAEDVGVYYCQQFLEYPLTFGGGTKVEIKRTVAAPSVFIFPPSDEQLKSGTASVVCLLNNFYPREAKVQWKVDNALQSGNSQESVTEQDSKDSTYSLSSTLTLSKADYEKHKVYACEVTHQGLSSPVTKSFNRGEC
B13: Humanized HC3 + LC3 (antibody)
heavy: not shown
light: DIVMTQSPLSLPVTPGEPASISCRSSKSLLHSSGKTYLNWYLQKPGQSPQLLIYWMSTRASGVPDRFSGSGSGTDFTLKISRVEAEDVGVYYCQQFLEYPLTFGGGTKVEIKRTVAAPSVFIFPPSDEQLKSGTASVVCLLNNFYPREAKVQWKVDNALQSGNSQESVTEQDSKDSTYSLSSTLTLSKADYEKHKVYACEVTHQGLSSPVTKSFNRGEC
B14: Humanized HC1 + LC3 (antibody)
heavy: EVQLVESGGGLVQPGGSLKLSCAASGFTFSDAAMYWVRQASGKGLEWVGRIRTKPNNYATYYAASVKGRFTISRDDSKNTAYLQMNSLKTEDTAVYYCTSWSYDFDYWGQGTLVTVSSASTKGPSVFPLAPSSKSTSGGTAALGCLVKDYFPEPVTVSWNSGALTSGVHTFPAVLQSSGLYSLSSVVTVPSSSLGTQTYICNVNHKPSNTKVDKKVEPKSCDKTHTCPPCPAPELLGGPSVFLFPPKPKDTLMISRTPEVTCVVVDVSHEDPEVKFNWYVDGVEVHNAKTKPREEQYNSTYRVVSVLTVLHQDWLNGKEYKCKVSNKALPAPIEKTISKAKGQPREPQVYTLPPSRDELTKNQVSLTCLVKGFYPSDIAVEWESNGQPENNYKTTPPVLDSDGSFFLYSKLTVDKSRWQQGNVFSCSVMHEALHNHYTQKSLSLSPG
light: DIVMTQSPLSLPVTPGEPASISCRSSKSLLHSSGKTYLNWYLQKPGQSPQLLIYWMSTRASGVPDRFSGSGSGTDFTLKISRVEAEDVGVYYCQQFLEYPLTFGGGTKVEIKRTVAAPSVFIFPPSDEQLKSGTASVVCLLNNFYPREAKVQWKVDNALQSGNSQESVTEQDSKDSTYSLSSTLTLSKADYEKHKVYACEVTHQGLSSPVTKSFNRGEC
B15: Humanized HC5 + LC3 (antibody)
heavy: not shown
light: DIVMTQSPLSLPVTPGEPASISCRSSKSLLHSSGKTYLNWYLQKPGQSPQLLIYWMSTRASGVPDRFSGSGSGTDFTLKISRVEAEDVGVYYCQQFLEYPLTFGGGTKVEIKRTVAAPSVFIFPPSDEQLKSGTASVVCLLNNFYPREAKVQWKVDNALQSGNSQESVTEQDSKDSTYSLSSTLTLSKADYEKHKVYACEVTHQGLSSPVTKSFNRGEC
B16: Humanized HC5 + LC2 (antibody)
heavy: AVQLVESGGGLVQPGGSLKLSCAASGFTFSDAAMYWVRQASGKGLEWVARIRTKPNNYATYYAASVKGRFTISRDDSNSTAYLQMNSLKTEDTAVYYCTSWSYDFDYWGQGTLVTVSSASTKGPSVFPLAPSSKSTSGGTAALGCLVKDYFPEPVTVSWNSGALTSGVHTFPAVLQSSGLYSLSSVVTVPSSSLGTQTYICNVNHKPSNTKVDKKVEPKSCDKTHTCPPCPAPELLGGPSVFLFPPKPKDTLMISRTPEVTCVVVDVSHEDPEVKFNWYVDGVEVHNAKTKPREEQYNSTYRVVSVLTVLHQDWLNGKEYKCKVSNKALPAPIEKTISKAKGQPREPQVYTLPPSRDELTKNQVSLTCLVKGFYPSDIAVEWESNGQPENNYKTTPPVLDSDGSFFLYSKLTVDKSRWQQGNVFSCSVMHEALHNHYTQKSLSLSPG
light: DIVMTQSPLSLPVTPGEPASISCRSSKSLLHSSGKTYLNWYLQKPGQSPQLLIYWMSTRASGVPDRFSGSGSGTDFTLKISRVEAEDVGVYYCQQFLEYPLTFGQGTKLEIKRTVAAPSVFIFPPSDEQLKSGTASVVCLLNNFYPREAKVQWKVDNALQSGNSQESVTEQDSKDSTYSLSSTLTLSKADYEKHKVYACEVTHQGLSSPVTKSFNRGEC
B17: Humanized HC4 + LC2 (antibody)
heavy: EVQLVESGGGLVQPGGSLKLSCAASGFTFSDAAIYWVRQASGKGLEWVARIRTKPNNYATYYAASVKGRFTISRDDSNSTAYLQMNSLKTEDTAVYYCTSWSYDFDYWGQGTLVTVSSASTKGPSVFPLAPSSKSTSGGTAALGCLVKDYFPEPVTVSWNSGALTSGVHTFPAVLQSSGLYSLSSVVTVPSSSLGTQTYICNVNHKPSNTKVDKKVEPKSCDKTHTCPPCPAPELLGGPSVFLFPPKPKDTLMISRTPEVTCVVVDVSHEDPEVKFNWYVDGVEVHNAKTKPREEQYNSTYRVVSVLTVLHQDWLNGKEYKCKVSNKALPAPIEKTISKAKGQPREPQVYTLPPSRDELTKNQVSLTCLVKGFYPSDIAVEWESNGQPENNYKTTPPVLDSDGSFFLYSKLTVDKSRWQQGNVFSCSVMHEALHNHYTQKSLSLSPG
light: DIVMTQSPLSLPVTPGEPASISCRSSKSLLHSSGKTYLNWYLQKPGQSPQLLIYWMSTRASGVPDRFSGSGSGTDFTLKISRVEAEDVGVYYCQQFLEYPLTFGQGTKLEIKRTVAAPSVFIFPPSDEQLKSGTASVVCLLNNFYPREAKVQWKVDNALQSGNSQESVTEQDSKDSTYSLSSTLTLSKADYEKHKVYACEVTHQGLSSPVTKSFNRGEC
B18: Humanized HC2 + LC2 (antibody)
heavy: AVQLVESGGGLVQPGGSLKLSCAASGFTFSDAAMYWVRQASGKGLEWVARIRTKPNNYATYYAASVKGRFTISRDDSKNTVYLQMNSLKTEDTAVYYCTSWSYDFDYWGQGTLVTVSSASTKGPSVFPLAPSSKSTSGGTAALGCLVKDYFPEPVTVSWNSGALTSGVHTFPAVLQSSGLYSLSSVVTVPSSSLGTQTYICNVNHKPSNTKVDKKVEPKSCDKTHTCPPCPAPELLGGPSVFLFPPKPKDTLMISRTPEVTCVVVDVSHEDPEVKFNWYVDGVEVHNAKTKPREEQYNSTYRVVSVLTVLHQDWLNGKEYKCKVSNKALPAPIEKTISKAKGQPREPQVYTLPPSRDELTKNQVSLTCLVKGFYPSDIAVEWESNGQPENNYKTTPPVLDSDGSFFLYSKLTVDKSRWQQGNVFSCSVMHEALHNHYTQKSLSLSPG
light: DIVMTQSPLSLPVTPGEPASISCRSSKSLLHSSGKTYLNWYLQKPGQSPQLLIYWMSTRASGVPDRFSGSGSGTDFTLKISRVEAEDVGVYYCQQFLEYPLTFGQGTKLEIKRTVAAPSVFIFPPSDEQLKSGTASVVCLLNNFYPREAKVQWKVDNALQSGNSQESVTEQDSKDSTYSLSSTLTLSKADYEKHKVYACEVTHQGLSSPVTKSFNRGEC
B19: Humanized HC3 + LC2 (antibody)
heavy: not shown
light: DIVMTQSPLSLPVTPGEPASISCRSSKSLLHSSGKTYLNWYLQKPGQSPQLLIYWMSTRASGVPDRFSGSGSGTDFTLKISRVEAEDVGVYYCQQFLEYPLTFGQGTKLEIKRTVAAPSVFIFPPSDEQLKSGTASVVCLLNNFYPREAKVQWKVDNALQSGNSQESVTEQDSKDSTYSLSSTLTLSKADYEKHKVYACEVTHQGLSSPVTKSFNRGEC
B20: Humanized HC1 + LC2 (antibody)
heavy: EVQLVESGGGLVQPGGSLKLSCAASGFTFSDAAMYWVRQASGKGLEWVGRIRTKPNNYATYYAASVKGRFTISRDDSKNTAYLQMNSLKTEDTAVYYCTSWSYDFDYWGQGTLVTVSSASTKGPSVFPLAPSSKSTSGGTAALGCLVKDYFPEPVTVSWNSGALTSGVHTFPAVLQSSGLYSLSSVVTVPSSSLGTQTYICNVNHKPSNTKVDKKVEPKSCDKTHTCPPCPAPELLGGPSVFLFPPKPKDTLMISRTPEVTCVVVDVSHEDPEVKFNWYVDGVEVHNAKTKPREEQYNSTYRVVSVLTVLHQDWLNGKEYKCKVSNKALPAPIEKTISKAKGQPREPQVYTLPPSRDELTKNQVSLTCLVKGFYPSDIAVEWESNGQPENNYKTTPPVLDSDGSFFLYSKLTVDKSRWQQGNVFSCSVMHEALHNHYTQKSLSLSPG
light: DIVMTQSPLSLPVTPGEPASISCRSSKSLLHSSGKTYLNWYLQKPGQSPQLLIYWMSTRASGVPDRFSGSGSGTDFTLKISRVEAEDVGVYYCQQFLEYPLTFGQGTKLEIKRTVAAPSVFIFPPSDEQLKSGTASVVCLLNNFYPREAKVQWKVDNALQSGNSQESVTEQDSKDSTYSLSSTLTLSKADYEKHKVYACEVTHQGLSSPVTKSFNRGEC

Among the data in patent publication US20230287095A1 (published 2023) are EC50 values, retold here.

In the first assay the target is T1, human pro-EMAPII. The assay is described as follows: ELISA. On the technique in general: In an ELISA, binding on a coated surface is turned into a signal by an enzyme label.
In the case of B1, a half-maximal response (EC50) required 0.078 µg/mL.
Same read-out and setting: with B2 the figure was 0.113 µg/mL; with B3, 0.07 µg/mL; with B4, 0.197 µg/mL.
B5 gave an EC50 of 0.166 µg/mL.

A further assay deals with T1, human pro-EMAPII. The assay is described as follows: ELISA. The source holds these as a separate data set.
Take B6: a half-maximal response (EC50) required 0.082 µg/mL.
Still for that read-out and setting: with B7 the figure was 0.076 µg/mL.
B8 yielded an EC50 of 0.163 µg/mL.
Same read-out and setting: the same measure for B9: 0.198 µg/mL; for B10: 0.098 µg/mL.

The next assay addresses T1, human pro-EMAPII. The assay is described as follows: ELISA. This is another data set of the same source.
Molecule B11 came in with an EC50 of 0.229 µg/mL.
On the same count and under the same terms, the same measure for B12: 0.075 µg/mL; for B13: 0.077 µg/mL.
On the same count and under the same terms, the same measure for B14: 0.108 µg/mL; for B15: 0.2 µg/mL.

A further assay has as its target T1, human pro-EMAPII. Briefly: ELISA. This is another data set of the same source.
Regarding B16, the concentration for a half-maximal effect (EC50) was 0.17 µg/mL.
On the same count and under the same terms, the same measure for B17: 0.271 µg/mL.
The same measure, in the same setting: the same measure for B18: 0.112 µg/mL; for B19: 0.081 µg/mL; for B20: 0.089 µg/mL.

In general, EC50 refers to the concentration giving half of the maximal effect. Lower therefore signals greater potency.
